We go through one molecule from paper PMC9302186, “Defining variant-resistant epitopes targeted by SARS-CoV-2 antibodies: A global consortium study” (Science (New York, N.y.), 2021).

The experiment has as its target T1, SARS-CoV-2 spike trimer (as imaged by NS-EM) (SARS-CoV-2, ancestral (Wuhan-Hu-1, …, UniProt P0DTC2)).
T1 construct: also called spike trimers; spike protein
The experiment can be described thus: negative-stain electron microscopy. The settings on record: both partners purified.

B1: CoVIC-259 (antibody, V domains shown)
VH: EVQLVESGGGVVQPGRSLRLSCAASGFTFSSYAMHWVRQAPGKGLEWVAVLSYDGSNKYNADSVKGRFTISRDNSKNTLYLQMNSLRVEDTAMYYCARDGVSVTMVRGVIGPLCDYWGQGTLVTVSS
VL: not shown
notes: also called RBD-1 community representative
Consider B1, for which the binding result is recorded as “binds”.
